Assay results from PMC7900760, “Perilipin 5 S155 phosphorylation by PKA is required for the control of hepatic lipid metabolism and glycemic control” (Journal of Lipid Research, 2021).
Numbering of substitutions follows the chain as printed. Numbers in names are those of the source. Values belong to the binder of their own block, whether it stands above or below them.

Legend:
[1] = target: T1, ATGL-CFP (adipose triglyceride lipase fused to CFP) (UniProt Q8BJ56 1-486); assay: FRET or BRET; phasor-based FLIM-FRET in live HeLa cells transiently co-transfected with a CFP donor (ATGL-CFP or ABHD5-CFP) and a YFP acceptor (PLIN5-YFP or PLIN5 S155A-YFP); 37°C, 5% CO2; before and after 20 μM forskolin; conditions: partners not purified
T1 construct: Adipose triglyceride lipase (ATGL); source: HeLa cells, transiently transfected (Lipofectamine 3000), in live cells
T1 sequence (looked up): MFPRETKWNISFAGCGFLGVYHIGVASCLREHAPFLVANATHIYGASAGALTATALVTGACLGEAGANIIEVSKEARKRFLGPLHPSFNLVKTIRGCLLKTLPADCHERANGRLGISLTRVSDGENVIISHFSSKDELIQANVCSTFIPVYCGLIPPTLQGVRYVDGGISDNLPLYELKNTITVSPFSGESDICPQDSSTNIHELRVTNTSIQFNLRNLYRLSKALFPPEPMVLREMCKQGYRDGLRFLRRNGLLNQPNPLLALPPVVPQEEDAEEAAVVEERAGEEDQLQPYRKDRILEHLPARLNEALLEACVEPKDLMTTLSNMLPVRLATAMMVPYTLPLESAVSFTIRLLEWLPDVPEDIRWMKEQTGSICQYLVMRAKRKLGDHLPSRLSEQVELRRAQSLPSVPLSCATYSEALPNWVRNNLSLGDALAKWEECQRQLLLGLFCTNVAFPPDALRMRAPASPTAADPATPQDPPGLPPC

[2] = target: T2, ABHD5-CFP (α-β hydrolase domain-containing 5 fused to CFP) (UniProt Q9DBL9 1-351); assay: as above; conditions: partners not purified
T2 construct: α-β hydrolase domain-containing 5 (ABHD5, also known as CGI-58); also called CGI-58; source: HeLa cells, transiently transfected (Lipofectamine 3000), in live cells
T2 sequence (looked up): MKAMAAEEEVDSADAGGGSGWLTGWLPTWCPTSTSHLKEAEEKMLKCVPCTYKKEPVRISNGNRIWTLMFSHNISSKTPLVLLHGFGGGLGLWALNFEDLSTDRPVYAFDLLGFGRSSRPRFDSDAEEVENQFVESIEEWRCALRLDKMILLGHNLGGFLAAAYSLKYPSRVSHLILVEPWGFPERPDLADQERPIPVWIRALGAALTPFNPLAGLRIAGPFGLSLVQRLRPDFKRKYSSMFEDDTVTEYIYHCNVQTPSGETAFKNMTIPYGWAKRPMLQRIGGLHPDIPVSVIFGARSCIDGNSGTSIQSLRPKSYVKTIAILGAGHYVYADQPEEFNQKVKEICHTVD

FRET efficiency [1]: 20%
FRET efficiency [2]: 25%
B1: PLIN5-YFP (perilipin 5 fused to YFP) (natural protein, mouse, UniProt Q8BVZ1 1-463, looked up)
chain: MDQRGEDTTLAPHSRMSGDQTAQDPGSSLGELDQQNVVNRVVALPLVKATCTAVSSAYNSAKDRHPLLGSACRLAEHCVCSVTTCALDHAQPLLEHLQPQLATVNDLACRGLDKLEEKLPFLQQPSDMVVTSAKDTVAKSVTGMVDLAQRGRRWSGELRRSMSQAMDMVLGKSEKLVDRFLPMTEAELAVLAAEAEGPEVGTVEEQRQQQGYFVRLGSLSARLRHLAYEHSLGKLRQSKHRTQEMLAQLQETLELIQHMQRGASPSPTFHPPKTQELWGSWSPCLENGRSHSEVELETLALSRSLTLELQNAVDALAGCVRGLPPSAQAKVAEVQRSVDALQATFADAHCLGDVAPTALAEGRGSVARAHACVDEFLDLVLRAMPLPWLVGPFAPILVEQSEPLINLATCVDEVVGDPDPRWAHMDWPAQKRAWEAESADPGGQEAEPPRGQGKHTMMPELDF
notes: Perilipin 5 (PLIN5), murine; also called wild-type PLIN5; source: HeLa cells, transiently transfected (Lipofectamine 3000), in live cells

FRET efficiency [1]: 20%
FRET efficiency [2]: 25%
B2: PLIN5 S155A-YFP (natural protein, mouse, UniProt Q8BVZ1 1-463, looked up)
chain: B1 chain with S155A
notes: Perilipin 5 (PLIN5), murine, with the phosphorylation-defective S155A mutation; also called phospho-mutant S155A; source: HeLa cells, transiently transfected (Lipofectamine 3000), in live cells
